From patent US20230189844 come the findings set out here.

Data set [1] addresses T1, Soy Bowman-Birk Inhibitor, P01055.
T1 chain: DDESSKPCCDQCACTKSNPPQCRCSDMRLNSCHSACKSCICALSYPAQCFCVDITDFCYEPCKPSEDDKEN

In data set [2] the target is T2, Soy Kunitz Inhibitor (Trypsin Inhibitor from soybean), P01070.
T2 chain: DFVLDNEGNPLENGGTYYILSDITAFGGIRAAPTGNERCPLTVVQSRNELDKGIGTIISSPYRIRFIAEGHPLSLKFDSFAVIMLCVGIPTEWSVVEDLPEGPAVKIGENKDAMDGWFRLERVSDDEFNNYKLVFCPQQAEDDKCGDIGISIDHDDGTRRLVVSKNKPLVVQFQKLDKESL

Data set [3] concerns the target Soybean agglutinin (SBA), P05046.

Soybean agglutinin (SBA), P05046, sequence (P05046 33-285): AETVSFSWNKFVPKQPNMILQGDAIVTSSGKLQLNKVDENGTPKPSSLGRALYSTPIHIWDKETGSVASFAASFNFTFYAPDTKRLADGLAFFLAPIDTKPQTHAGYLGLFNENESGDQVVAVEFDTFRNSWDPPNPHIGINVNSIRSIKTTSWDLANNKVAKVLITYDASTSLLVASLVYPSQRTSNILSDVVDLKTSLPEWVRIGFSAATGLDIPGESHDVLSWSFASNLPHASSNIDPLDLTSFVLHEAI

B1: Protease derived from Nocardiopsis sp. NRRL 18262 (an acid-stable protease) (protein)
chain: ADIIGGLAYTMGGRCSVGFAATNAAGQPGFVTAGHCGRVGTQVTIGNGRGVFEQSVFPGNDAAFVRGTSNFTLTNLVSRYNTGGYATVAGHNQAPIGSSVCRSGSTTGWHCGTIQARGQSVSYPEGTVTNMTRTTVCAEPGDSGGSYISGTQAQGVTSGGSGNCRTGGTTFYQEVTPMVNSWGVRLRT
In the case of B1, the figures for the % of anti-nutritional factor degraded (SDS-PAGE band disappearance, 2 hours, 37° C., pH 6.5) in data set [1], in data set [2] and in data set [3] were 25%, 100% and 75%, respectively.
